Biological target: hematopoietic form of CD44 (CD44-H) fused to CFP or YFP (human) (UniProt P16070)
Experiment: FRET or BRET

## hematopoietic form of CD44 (CD44-H) fused to CFP or YFP (from UniProt P16070-12 21-361) (receptor)
  FRET efficiency (E) with nHA followed by oHA: -15.3%

Source: paper PMC3522304
